The values that follow are results of earlier work, collected in US11340238B2 (Biocon Limited, priority 2015, dated 2022).

For the data set the following is noted: Type 1 Diabetes Mellitus patients on RHI therapy.

For recombinant Human insulin [RHI], the Cmax is listed as approximately 100 mU/L.
